Measurements published in article PMC11929599.

What was measured:
Experiment in all cases: two-hybrid
[1] = biological target: SePdx R96A fused to T25 (pKT25‐SePdx R96A) (Synechococcus elongatus PCC 7942)
[2] = biological target: SePdx D28A fused to T25 (pKT25‐SePdx D28A) (Synechococcus elongatus PCC 7942)
[3] = biological target: SePdx Y31A fused to T25 (pKT25‐SePdx Y31A) (Synechococcus elongatus PCC 7942)
[4] = biological target: SePdx R189A fused to T25 (pKT25‐SePdx R189A) (Synechococcus elongatus PCC 7942)
[5] = biological target: SePdx Q214A fused to T25 (pKT25‐SePdx Q214A) (Synechococcus elongatus PCC 7942)
[6] = biological target: SePdx G299A fused to T25 (pKT25‐SePdx G299A) (Synechococcus elongatus PCC 7942)
[7] = biological target: SePdx Y144A fused to T25 (pKT25‐SePdx Y144A) (Synechococcus elongatus PCC 7942)
[8] = biological target: SePdx T5A fused to T25 (pKT25‐SePdx T5A) (Synechococcus elongatus PCC 7942)

Substance | decrease of β‐galactosidase activity against WT SePdx [1] [%] | decrease of β‐galactosidase activity against WT SePdx [2] [%] | decrease of β‐galactosidase activity against WT SePdx [3] [%] | decrease of β‐galactosidase activity against WT SePdx [4] [%] | decrease of β‐galactosidase activity against WT SePdx [5] [%] | decrease of β‐galactosidase activity against WT SePdx [6] [%] | decrease of β‐galactosidase activity against WT SePdx [7] [%] | increase of β‐galactosidase activity against WT SePdx [8] [%]
CpcA1 fused to T18C (pUT18C) (from UniProt P13530 1-163) (natural protein) | 65.1 | 67.6 | 46.3 | 60.8 | 40.3 | – | – | –
PSI core protein PsaE fused to T18C (pUT18C) (from UniProt Q31NL7 1-75) (natural protein) | – | – | – | – | – | 12.2 | 27.2 | 3.19
